Results taken from publication PMC11260466, “Binding of the TRF2 iDDR motif to RAD50 highlights a convergent evolutionary strategy to inactivate MRN at telomeres”.

Molecular target: HsRAD50-head (Homo sapiens, UniProt Q92878;Q92878 1-200;1113-1312)
Experiment: EMSA; Mg-ATP; EMSA: 20 mM Bis-Tris propane pH 8.0, 200 mM NaCl, 0.5 mM TCEP, Mg-ATP added to RAD50, 500 nM DNA duplex; 5% polyacrylamide, 0.5x TBE, 4 C gel run (binding temperature not stated)
Details: protein: recombinant; tags: C-terminal 3C site + 2xStrep-II on the 1-200 fragment; chain copies: 2;2; label: 5'-carboxyfluorescein (F) on strand 1; blunt ends; as printed S2 is 47 nt and lacks the G opposite C21 of S1 (1-nt bulge, possibly a misprint)

HsRAD50-head, sequence (Q92878 1-200, chain 1 of 2): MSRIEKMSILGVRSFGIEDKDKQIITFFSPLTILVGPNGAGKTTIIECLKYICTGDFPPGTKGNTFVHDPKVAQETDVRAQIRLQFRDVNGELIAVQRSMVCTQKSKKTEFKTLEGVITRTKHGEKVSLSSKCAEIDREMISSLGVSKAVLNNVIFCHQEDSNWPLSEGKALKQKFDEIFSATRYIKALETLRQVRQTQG
HsRAD50-head, sequence (Q92878 1113-1312, chain 2 of 2): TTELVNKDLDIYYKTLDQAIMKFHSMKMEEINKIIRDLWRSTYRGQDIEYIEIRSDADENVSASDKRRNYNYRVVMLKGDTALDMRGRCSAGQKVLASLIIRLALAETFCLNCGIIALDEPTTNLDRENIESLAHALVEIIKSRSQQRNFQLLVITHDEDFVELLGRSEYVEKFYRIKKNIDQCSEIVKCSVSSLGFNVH

B1: 48-mer DNA duplex (dsDNA)
DNA 1: TAGTGCTGTAGGAGAATATACGGGCTGCTCGTGTTGACAAGTACTGAT
DNA 2: ATCAGTACTTGTCAACACGAGCAGCCCTATATTCTCCTACAGCACTA
  binding result: binds
